Measured values as given in the supplement of paper PMC10724198.
± gives the standard deviation of the averaged measurements.

How the values were obtained:
[1] = system: Saccharomyces cerevisiae; experiment: protein stability index of tFT-peptide fusion (C-terminal peptide) (PSI (0-1 scale)); higher = more stable (slower turnover)
Procedure: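 MPS profiling in S. cerevisiae of the tFT-X12 degron library: putative degron peptides plus stable controls, 12 aa, fused to the C-terminus of a sfGFP-mCherry timer. Cells are FACS-sorted into 8 mCherry/sfGFP bins and deep-sequenced. PSI runs from 0 (unstable) to 1 (stable). Backgrounds are wild type, das1Δ and doa10Δ at 30 °C, and wild type, das1Δ, cdc34-1 and cdc53-1 at 37 °C; 2-3 technical replicates each.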

[2] = system: Saccharomyces cerevisiae; experiment: as above; details: genetic background: wild type; temperature: 30 C
[3] = genetic background: cdc34-1, temperature: 37 C
[4] = genetic background: cdc53-1, temperature: 37 C
[5] = genetic background: das1 deletion, temperature: 30 C
[6] = genetic background: das1 deletion, temperature: 37 C
[7] = genetic background: doa10 deletion, temperature: 30 C
[8] = genetic background: wild type, temperature: 30 C
[9] = genetic background: wild type, temperature: 37 C
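Note: PSI is a weighted mean of sequencing reads over stability bins, variants kept only with over 10 reads, mCherry proximal and sfGFP distal, peptide attached via GGGS linker.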

Sequence | protein stability index [1, 3] | protein stability index [1, 4] | protein stability index [1, 5] | protein stability index [1, 6] | protein stability index [1, 7] | protein stability index [1, 8] | protein stability index [1, 9] | protein stability index [2]
RVGYSIIIIGIE | 0.351 ± 0.026 | 0.433 ± 0.087 | 0.312 ± 0.042 | 0.48295 ± 0.00022 | 0.244 ± 0.0084 | 0.303 ± 0.019 | 0.457 ± 0.029 | 0.354 ± 0.0038
SSVCLYWCCLFV | 0.522 ± 0.036 | 0.602 ± 0.013 | 0.443 ± 0.041 | 0.535 ± 0.016 | 0.407 ± 0.0018 | 0.426 ± 0.027 | 0.5166 ± 0.00058 | 0.432 ± 0.011
FVFFRFSLLFFF | 0.332 ± 0.022 | 0.344 ± 0.04 | 0.331 ± 0.029 | 0.449 ± 0.0046 | 0.269 ± 0.0034 | 0.225 ± 0.027 | 0.356 ± 0.014 | 0.337 ± 0.049
VVGRWGFVVECW | 0.268 ± 0.014 | 0.301 ± 0.024 | 0.254 ± 0.037 | 0.394 ± 0.0095 | 0.227 ± 0.011 | 0.249 ± 0.025 | 0.366 ± 0.0046 | 0.3595 ± 0.00014
DFCCGVILTCVC | 0.0751 ± 0.0081 | 0.106 ± 0.011 | 0.191 ± 0.025 | 0.233 ± 0.0083 | 0.156 ± 0.012 | 0.184 ± 0.019 | 0.193 ± 0.023 | 0.279 ± 0.01
VFFLVHFHLPMF | 0.531 ± 0.053 | 0.57 ± 0.041 | 0.414 ± 0.031 | 0.561 ± 0.01 | 0.394 ± 0.0077 | 0.401 ± 0.019 | 0.536 ± 0.03 | 0.455 ± 0.05
LLLCVVLVSVFG | 0.0374 ± 0.0057 | 0.0791 ± 0.044 | 0.122 ± 0.025 | 0.174 ± 0.02 | 0.0854 ± 0.0049 | 0.102 ± 0.023 | 0.134 ± 0.027 | 0.18 ± 0.0041
LFLSFLLLYFRP | 0.269 ± 0.019 | 0.219 ± 0.022 | 0.311 ± 0.037 | 0.4223 ± 0.0015 | 0.439 ± 0.021 | 0.313 ± 0.015 | 0.402 ± 0.0086 | 0.351 ± 0.039
VVVCSLVPLFVL | 0.3086 ± 0.0026 | 0.32 ± 0.035 | 0.272 ± 0.03 | 0.41 ± 0.017 | 0.205 ± 0.012 | 0.235 ± 0.029 | 0.318 ± 0.0076 | 0.34 ± 0.018
GSRRYYFTWVYQ | 0.454 ± 0.038 | 0.697 ± 0.013 | 0.655 ± 0.019 | 0.722 ± 0.019 | 0.0716 ± 0.016 | 0.0885 ± 0.015 | 0.0876 ± 0.024 | 0.1178 ± 0.00012
SRPEPNGLRKLV | 0.587 ± 0.009 | 0.727 ± 0.015 | 0.605 ± 0.029 | 0.751 ± 0.018 | 0.139 ± 0.024 | 0.172 ± 0.024 | 0.315 ± 0.052 | 0.293 ± 0.069
PGWALLQLVFLK | 0.363 ± 0.004 | 0.298 ± 0.039 | 0.346 ± 0.032 | 0.4845 ± 0.0029 | 0.496 ± 0.035 | 0.353 ± 0.021 | 0.464 ± 0.011 | 0.456 ± 0.012
LSLSPRLPRLVA | 0.613 ± 0.015 | 0.659 ± 0.018 | 0.537 ± 0.014 | 0.663 ± 0.0015 | 0.156 ± 0.0087 | 0.197 ± 0.023 | 0.377 ± 0.026 | 0.283 ± 0.038
LKCFLVLTFWFS | 0.187 ± 0.045 | 0.231 ± 0.012 | 0.222 ± 0.028 | 0.367 ± 0.018 | 0.184 ± 0.021 | 0.194 ± 0.027 | 0.3 ± 0.0095 | 0.263 ± 0.0049
FSLLFVRFCFFL | 0.2674 ± 0.00097 | 0.323 ± 0.0039 | 0.256 ± 0.037 | 0.4195 ± 0.0026 | 0.227 ± 0.0074 | 0.248 ± 0.039 | 0.3372 ± 0.0022 | 0.305 ± 0.037
FFFPFLCIAVSL | 0.464 ± 0.036 | 0.474 ± 0.016 | 0.418 ± 0.034 | 0.472 ± 0.0053 | 0.4007 ± 0.0018 | 0.413 ± 0.018 | 0.436 ± 0.011 | 0.458 ± 0.022
SCIFVSSYFFVF | 0.417 ± 0.0029 | 0.465 ± 0.057 | 0.364 ± 0.025 | 0.506 ± 0.012 | 0.179 ± 0.0043 | 0.18 ± 0.02 | 0.307 ± 0.00077 | 0.251 ± 0.02
SLFSPPVLATPS | 0.668 ± 0.031 | 0.7094 ± 0.0039 | 0.572 ± 0.018 | 0.705 ± 0.011 | 0.556 ± 0.02 | 0.569 ± 0.022 | 0.6797 ± 0.0026 | 0.0217 ± 0.0033
TNFVVRLRFVLF | 0.534 ± 0.021 | 0.5485 ± 0.00062 | 0.464 ± 0.016 | 0.522 ± 0.02 | 0.29 ± 0.015 | 0.295 ± 0.0087 | 0.419 ± 0.011 | 0.366 ± 0.029
FCVLLFFFPLII | 0.272 ± 0.012 | 0.293 ± 0.04 | 0.271 ± 0.029 | 0.402 ± 0.0046 | 0.376 ± 0.037 | 0.261 ± 0.015 | 0.374 ± 0.012 | 0.363 ± 0.024
GIANHAMVIVVL | 0.444 ± 0.011 | 0.469 ± 0.0052 | 0.322 ± 0.037 | 0.508 ± 0.0078 | 0.278 ± 0.0066 | 0.312 ± 0.017 | 0.468 ± 0.033 | 0.404 ± 0.04
HFLRYCSWFGLL | 0.656 ± 0.032 | 0.745 ± 0.015 | 0.6558 ± 0.0024 | 0.781 ± 0.013 | 0.142 ± 0.014 | 0.171 ± 0.017 | 0.353 ± 0.0095 | 0.15 ± 0.0097
WFWVAVGVVGGG | 0.496 ± 0.029 | 0.534 ± 0.022 | 0.356 ± 0.032 | 0.5243 ± 0.0031 | 0.326 ± 0.016 | 0.358 ± 0.015 | 0.5 ± 0.0082 | 0.449 ± 0.014
VLVVLVVCRRAE | 0.247 ± 0.039 | 0.412 ± 0.0043 | 0.226 ± 0.028 | 0.438 ± 0.0089 | 0.18 ± 0.041 | 0.226 ± 0.029 | 0.422 ± 0.0083 | 0.324 ± 0.032
LRFSLLRVGWLC | 0.652 ± 0.053 | 0.681 ± 0.017 | 0.58 ± 0.0099 | 0.732 ± 0.022 | 0.28 ± 0.0089 | 0.336 ± 0.037 | 0.561 ± 0.011 | 0.434 ± 0.0087
CVLGWCSLIAWC | 0.201 ± 0.044 | 0.238 ± 0.032 | 0.234 ± 0.015 | 0.231 ± 0.011 | 0.245 ± 0.025 | 0.242 ± 0.0093 | 0.1967 ± 0.0017 | 0.284 ± 0.018
LCWASLLIVYLP | 0.397 ± 0.014 | 0.4614 ± 0.0036 | 0.311 ± 0.03 | 0.50382 ± 0.0004 | 0.27 ± 0.017 | 0.278 ± 0.032 | 0.463 ± 0.0039 | 0.392 ± 0.011
LPTGLKTFLIAF | 0.481 ± 0.0085 | 0.485 ± 0.031 | 0.414 ± 0.025 | 0.541 ± 0.026 | 0.374 ± 0.0094 | 0.405 ± 0.027 | 0.519 ± 0.0071 | 0.461 ± 0.02
LRLLSLIPPLSC | 0.494 ± 0.022 | 0.535 ± 0.05 | 0.381 ± 0.039 | 0.53 ± 0.016 | 0.34 ± 0.011 | 0.385 ± 0.026 | 0.52 ± 0.011 | 0.467 ± 0.0065
SPCFLDPPRLIS | 0.663 ± 0.031 | 0.728 ± 0.025 | 0.681 ± 0.022 | 0.7568 ± 0.0044 | 0.287 ± 0.018 | 0.328 ± 0.032 | 0.536 ± 0.02 | 0.388 ± 0.025
